Laboratory results from publication PMC12636033, “Chemical Engineering of Transcription Factors Uncovered Cell-Permeable μMax Modulators”.

B1: dBr_Jan07_38389 (dsDNA)
DNA 1: CAAGCCTATCGCGGCCAATCGGTAAGCACGTGACTAGTCTGTGTTCCGTTGTCCGTGCTG
DNA 2: CAGCACGGACAACGGAACACAGACTAGTCACGTGCTTACCGATTGGCCGCGATAGGCTTG
B2: dBr_Jan07_27761 (dsDNA)
DNA 1: ATATCGACCTTTTATTGAAAACCGGGAGTCTCACGTGTCTGTGTTCCGTTGTCCGTGCTG
DNA 2: CAGCACGGACAACGGAACACAGACACGTGAGACTCCCGGTTTTCAATAAAAGGTCGATAT
B3: dBr_Jan07_04601 (dsDNA)
DNA 1: GGTGTACGCTAAGGATGCTACTACGACCTAACACGTGTCTGTGTTCCGTTGTCCGTGCTG
DNA 2: CAGCACGGACAACGGAACACAGACACGTGTTAGGTCGTAGTAGCATCCTTAGCGTACACC
B4: dBr_Jan07_23401 (dsDNA)
DNA 1: TCTATGCTCGCGGATGCCCTTAAACTAGGCACGTGTGTCTGTGTTCCGTTGTCCGTGCTG
DNA 2: CAGCACGGACAACGGAACACAGACACACGTGCCTAGTTTAAGGGCATCCGCGAGCATAGA
B5: dBr_Jan07_14484 (dsDNA)
DNA 1: CTGCAGTTCTACTGTATCCACGACATAGAGACACGTGTCTGTGTTCCGTTGTCCGTGCTG
DNA 2: CAGCACGGACAACGGAACACAGACACGTGTCTCTATGTCGTGGATACAGTAGAACTGCAG
B6: dBr_Jan07_31967 (dsDNA)
DNA 1: GTGTCACGTGTCGTTCATCCTTATTAACTAGGGTCTGTCTGTGTTCCGTTGTCCGTGCTG
DNA 2: CAGCACGGACAACGGAACACAGACAGACCCTAGTTAATAAGGATGAACGACACGTGACAC
B7: dBr_Jan07_40162 (dsDNA)
DNA 1: CCTTGAACCATTAGCACGTGGATATATAAATCTTACGTCTGTGTTCCGTTGTCCGTGCTG
DNA 2: CAGCACGGACAACGGAACACAGACGTAAGATTTATATATCCACGTGCTAATGGTTCAAGG
B8: dBr_Jan07_01852 (dsDNA)
DNA 1: AGGAGTCTTGCCGCACGGTCCCCGTCTTATGCACGTGTCTGTGTTCCGTTGTCCGTGCTG
DNA 2: CAGCACGGACAACGGAACACAGACACGTGCATAAGACGGGGACCGTGCGGCAAGACTCCT
B9: dBr_Jan07_37076 (dsDNA)
DNA 1: AAAACGTTCCGAGCCATTTAGAAGGGGTCACGTGATGTCTGTGTTCCGTTGTCCGTGCTG
DNA 2: CAGCACGGACAACGGAACACAGACATCACGTGACCCCTTCTAAATGGCTCGGAACGTTTT
B10: dBr_Jan07_19348 (dsDNA)
DNA 1: ACCTCTGTAAGTCTGAGTCTGATAACCACGTGTCGGGTCTGTGTTCCGTTGTCCGTGCTG
DNA 2: CAGCACGGACAACGGAACACAGACCCGACACGTGGTTATCAGACTCAGACTTACAGAGGT
B11: dBr_Jan07_34042 (dsDNA)
DNA 1: GCCGAAAGTCCCCCACGTGGTCAGTAAAAGAGAAGAGTCTGTGTTCCGTTGTCCGTGCTG
DNA 2: CAGCACGGACAACGGAACACAGACTCTTCTCTTTTACTGACCACGTGGGGGACTTTCGGC
B12: E-box DNA probe (dsDNA)
DNA 1: CCGGCTGACACGTGGTATTAAT
DNA 2: ATTAATACCACGTGTCAGCCGG
B13: dBr_Jan07_02206 (dsDNA)
DNA 1: GGCAGTCGGTCGTTCCAGATATTAGGATCTCCACGTGTCTGTGTTCCGTTGTCCGTGCTG
DNA 2: CAGCACGGACAACGGAACACAGACACGTGGAGATCCTAATATCTGGAACGACCGACTGCC
B14: dBr_Jan07_38976 (dsDNA)
DNA 1: CGACACAGAAAACAATTCCGACTTGCTTTCCGCGTGGTCTGTGTTCCGTTGTCCGTGCTG
DNA 2: CAGCACGGACAACGGAACACAGACCACGCGGAAAGCAAGTCGGAATTGTTTTCTGTGTCG
B15: dBr_Jan07_24740 (dsDNA)
DNA 1: ATAGAGCGTCAGAATAGTGACATACACGTGGTCCCCGTCTGTGTTCCGTTGTCCGTGCTG
DNA 2: CAGCACGGACAACGGAACACAGACGGGGACCACGTGTATGTCACTATTCTGACGCTCTAT
B16: dBr_Jan07_31500 (dsDNA)
DNA 1: CTCCGTGGGTTCGTGAGTTCATGGCGAAAAGCACGTGTCTGTGTTCCGTTGTCCGTGCTG
DNA 2: CAGCACGGACAACGGAACACAGACACGTGCTTTTCGCCATGAACTCACGAACCCACGGAG
B17: dBr_Jan07_33198 (dsDNA)
DNA 1: GCATAAACAAGGCCGCTGTAGCGGTTCGGTGCACGTGTCTGTGTTCCGTTGTCCGTGCTG
DNA 2: CAGCACGGACAACGGAACACAGACACGTGCACCGAACCGCTACAGCGGCCTTGTTTATGC
B18: dBr_Jan07_06713 (dsDNA)
DNA 1: AGTAACGGGGTCGCTTGATGGGCTCTTCCGCGTGGAGTCTGTGTTCCGTTGTCCGTGCTG
DNA 2: CAGCACGGACAACGGAACACAGACTCCACGCGGAAGAGCCCATCAAGCGACCCCGTTACT
B19: dBr_Jan07_15201 (dsDNA)
DNA 1: TTGCCTGGGATTAGATTCTACGCTCACGATGCACGTGTCTGTGTTCCGTTGTCCGTGCTG
DNA 2: CAGCACGGACAACGGAACACAGACACGTGCATCGTGAGCGTAGAATCTAATCCCAGGCAA
B20: dBr_Jan07_17964 (dsDNA)
DNA 1: ACTTGAATGAGGGCCTTTGATCTGCTTTACTCACGTGTCTGTGTTCCGTTGTCCGTGCTG
DNA 2: CAGCACGGACAACGGAACACAGACACGTGAGTAAAGCAGATCAAAGGCCCTCATTCAAGT
B21: dBr_Jan07_27753 (dsDNA)
DNA 1: TTTTCATACGAACTTCGAGCTCCCCACGTGGTTCTTGTCTGTGTTCCGTTGTCCGTGCTG
DNA 2: CAGCACGGACAACGGAACACAGACAAGAACCACGTGGGGAGCTCGAAGTTCGTATGAAAA
B22: dBr_Jan07_34030 (dsDNA)
DNA 1: GAACGAGGGACCGCTAGGATGCCACGTGATTAAAGTGTCTGTGTTCCGTTGTCCGTGCTG
DNA 2: CAGCACGGACAACGGAACACAGACACTTTAATCACGTGGCATCCTAGCGGTCCCTCGTTC
B23: dBr_Jan07_01656 (dsDNA)
DNA 1: TCGATCACACACGTGCTTATTGTACCAAACACATACGTCTGTGTTCCGTTGTCCGTGCTG
DNA 2: CAGCACGGACAACGGAACACAGACGTATGTGTTTGGTACAATAAGCACGTGTGTGATCGA

Legend:
µMax20 = µMax20 (UniProt P61244); experiment: BLI; conditions: EMSA: 10 mM MES pH 6.0, 150 mM KCl, 1 mM MgCl2, 10% glycerol, room temperature, 1 uM DNA; BLI: global 1:1 fit, buffer not in material
Chain of µMax20 (P61244 whole entry): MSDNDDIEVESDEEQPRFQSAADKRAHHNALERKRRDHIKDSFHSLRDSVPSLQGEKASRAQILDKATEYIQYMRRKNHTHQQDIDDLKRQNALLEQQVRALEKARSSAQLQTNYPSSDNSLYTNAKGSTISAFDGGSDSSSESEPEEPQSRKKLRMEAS

WT Max = WT Max (Homo sapiens, UniProt P61244-2 13-93, M65Nle, norleucine written as M; other non-natural residues written as X); experiment: PBM; 50-200 nM protein; PBS, 2% milk, BSA, salmon testes DNA, 0.02% Triton X-100; conditions: chain copies: 2; label: surface-attached array probe
Chain of WT Max (P61244 other isoform, or with tags, fused parts or gaps M65Nle): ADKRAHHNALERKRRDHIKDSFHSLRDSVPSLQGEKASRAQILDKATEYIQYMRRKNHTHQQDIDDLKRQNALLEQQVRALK

[1] = biological target: WT Max (synthetic µMax scaffold) (UniProt P61244 22-102); experiment: BLI; EMSA: 10 mM MES pH 6.0, 150 mM KCl, 1 mM MgCl2, 10% glycerol, room temperature, 1 uM DNA; BLI: global 1:1 fit, buffer not in material; conditions: chain copies: 2
Chain of WT Max (synthetic µMax scaffold) (P61244 22-102): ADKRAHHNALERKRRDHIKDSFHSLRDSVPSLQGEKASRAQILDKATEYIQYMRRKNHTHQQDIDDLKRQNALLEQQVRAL

µMax H19Y = µMax H19Y (UniProt P61244 22-102, H28Y); experiment: EMSA; 3 uM protein, 1 uM DNA; EMSA: 10 mM MES pH 6.0, 150 mM KCl, 1 mM MgCl2, 10% glycerol, room temperature, 1 uM DNA; BLI: global 1:1 fit, buffer not in material; conditions: chain copies: 2
Chain of µMax H19Y (P61244 22-102 H28Y): as the sequence (P61244 22-102) above, with H7Y counted along it

| Molecule | binding signal (WT Max) | further results |
| --- | --- | --- |
| CCGGCTGACACGTGGTATTAAT (double strand) [E-box DNA probe] | – | Kd (µMax20): 4.38 nM |
| B1 | 3.67 robust z of log adjusted intensity (ours), mean of two arrays | – |
| B2 | 3.44 robust z of log adjusted intensity (ours), mean of two arrays | – |
| B3 | 3.7 robust z of log adjusted intensity (ours), mean of two arrays | – |
| B4 | 3.69 robust z of log adjusted intensity (ours), mean of two arrays | – |
| B5 | 5.27 robust z of log adjusted intensity (ours), mean of two arrays | – |
| B6 | 3.79 robust z of log adjusted intensity (ours), mean of two arrays | – |
| B7 | 3.32 robust z of log adjusted intensity (ours), mean of two arrays | – |
| B8 | 3.5 robust z of log adjusted intensity (ours), mean of two arrays | – |
| B9 | 3.31 robust z of log adjusted intensity (ours), mean of two arrays | – |
| B10 | 5.01 robust z of log adjusted intensity (ours), mean of two arrays | – |
| B11 | 4.32 robust z of log adjusted intensity (ours), mean of two arrays | – |
| B12 | – | Kd [1]: 8.1 ± 2.24 nM; binding result (µMax H19Y): binds |
| B13 | 3.71 robust z of log adjusted intensity (ours), mean of two arrays | – |
| B14 | 3.81 robust z of log adjusted intensity (ours), mean of two arrays | – |
| B15 | 3.51 robust z of log adjusted intensity (ours), mean of two arrays | – |
| B16 | 4.51 robust z of log adjusted intensity (ours), mean of two arrays | – |
| B17 | 3.33 robust z of log adjusted intensity (ours), mean of two arrays | – |
| B18 | 3.79 robust z of log adjusted intensity (ours), mean of two arrays | – |
| B19 | 3.45 robust z of log adjusted intensity (ours), mean of two arrays | – |
| B20 | 3.59 robust z of log adjusted intensity (ours), mean of two arrays | – |
| B21 | 5.1 robust z of log adjusted intensity (ours), mean of two arrays | – |
| B22 | 3.45 robust z of log adjusted intensity (ours), mean of two arrays | – |
| B23 | 3.68 robust z of log adjusted intensity (ours), mean of two arrays | – |
